Reference: publication PMC9406194

Key:
hemoglobin = test: 2DPC hydrogel aptasensor (Debye ring); conditions: DNA-H1-960, 500 uM protein; same limit as blank; 5'-NH2-(CH2)6 and 3'-(CH2)6-NH2; amide-linked to hydrogel carboxyl groups; 10 mM phosphate-buffered saline, pH 7.40 (one test at pH 5.00), 1 h immersion; temperature of the binding assay not stated
trypsin = test: 2DPC hydrogel aptasensor (Debye ring); conditions: DNA-H1-960, 500 uM protein; same limit as blank; 5'-NH2-(CH2)6 and 3'-(CH2)6-NH2; amide-linked to hydrogel carboxyl groups; 10 mM phosphate-buffered saline, pH 7.40 (one test at pH 5.00), 1 h immersion; temperature of the binding assay not stated

## ATCTACGAATTCATCAGGGCTAAAGAGTGCAGAGTTACTTAG [lysozyme-binding aptamer]
hemoglobin
  binding signal (nm particle spacing decrease): < 12.7
trypsin
  binding signal (nm particle spacing decrease): < 12.7
